Data published in patent publication US20230406885A1, “CYCLIC PEPTIDES FOR TRAPPING INTERLEUKIN-1 BETA” (MERCK SHARP & DOHME LLC, priority 2022, published 2023).
*1 amine or outer side, *2 acyl side, *3 side chain or, on linkers, in order; H or OH if unused. [ ]: non-standard residue; d: D form. TyrEtNAc = L-tyrosine O-ethyl acetamide, (S)-3-(4-(2-acetamidoethoxy)phenyl)-2-aminopropanoic acid, CC(=O)NCCOc1ccc(C[C@H](N[*:1])C(=O)[*:2])cc1; Pro(trans-4-NH2) = O=C([C@@H]1C[C@@H](N[*:3])CN1[*:1])[*:2]; Bip(4'-COOH) = N[C@@H](Cc1ccc(-c2ccc(C(=O)O)cc2)cc1)C(=O)O; 1Nal(3S-Me) = C[C@@H](c1cccc2ccccc12)[C@H](N)C(=O)O; Phe(4-COOH) = N[C@@H](Cc1ccc(C(=O)O)cc1)C(=O)O; h3Pal(5-CN) = N#Cc1cncc(CC[C@H](N)C(=O)O)c1; 1Nal = N[C@@H](Cc1cccc2ccccc12)C(=O)O; hTyr = N[C@@H](CCc1ccc(O)cc1)C(=O)O; Orn = NCCC[C@H](N)C(=O)O; dNMeA = CN[C@H](C)C(=O)O; Dab = NCC[C@H](N)C(=O)O; Nva = CCC[C@H](N)C(=O)O; Dap = NC[C@H](N)C(=O)O; Aib = CC(C)(N)C(=O)O

B1: SEQ ID NO: 121 (Example No. 121) (peptide)
peptide: cyclo([TyrEtNAc]W[Phe(4-COOH)]G[Pro(trans-4-NH2)][1Nal(3S-Me)]D[dNMeA]G[Bip(4'-COOH)]W[Dap][dNMeA][hTyr])
SMILES: CC(=O)NCCOc1ccc(C[C@@H]2NC(=O)[C@H](CCc3ccc(O)cc3)NC(=O)[C@@H](C)N(C)C(=O)[C@H](CN)NC(=O)[C@H](Cc3c[nH]c4ccccc34)NC(=O)[C@H](Cc3ccc(-c4ccc(C(=O)O)cc4)cc3)NC(=O)CNC(=O)[C@@H](C)N(C)C(=O)[C@H](CC(=O)O)NC(=O)[C@H]([C@@H](C)c3cccc4ccccc34)NC(=O)[C@@H]3C[C@@H](N)CN3C(=O)CNC(=O)[C@H](Cc3ccc(C(=O)O)cc3)NC(=O)[C@H](Cc3c[nH]c4ccccc34)NC2=O)cc1
B2: SEQ ID NO: 92 (peptide)
peptide: cyclo([TyrEtNAc]W[Phe(4-COOH)]G[Pro(trans-4-NH2)][1Nal(3S-Me)]D[dNMeA]G[Bip(4'-COOH)][1Nal][Dab][Aib]G)
SMILES: CC(=O)NCCOc1ccc(C[C@@H]2NC(=O)CNC(=O)C(C)(C)NC(=O)[C@H](CCN)NC(=O)[C@H](Cc3cccc4ccccc34)NC(=O)[C@H](Cc3ccc(-c4ccc(C(=O)O)cc4)cc3)NC(=O)CNC(=O)[C@@H](C)N(C)C(=O)[C@H](CC(=O)O)NC(=O)[C@H]([C@@H](C)c3cccc4ccccc34)NC(=O)[C@@H]3C[C@@H](N)CN3C(=O)CNC(=O)[C@H](Cc3ccc(C(=O)O)cc3)NC(=O)[C@H](Cc3c[nH]c4ccccc34)NC2=O)cc1
B3: SEQ ID NO: 93 (peptide)
peptide: cyclo([TyrEtNAc]W[Phe(4-COOH)]G[Pro(trans-4-NH2)][1Nal(3S-Me)]D[dNMeA]G[Bip(4'-COOH)][1Nal][Dab][Aib][hTyr])
SMILES: CC(=O)NCCOc1ccc(C[C@@H]2NC(=O)[C@H](CCc3ccc(O)cc3)NC(=O)C(C)(C)NC(=O)[C@H](CCN)NC(=O)[C@H](Cc3cccc4ccccc34)NC(=O)[C@H](Cc3ccc(-c4ccc(C(=O)O)cc4)cc3)NC(=O)CNC(=O)[C@@H](C)N(C)C(=O)[C@H](CC(=O)O)NC(=O)[C@H]([C@@H](C)c3cccc4ccccc34)NC(=O)[C@@H]3C[C@@H](N)CN3C(=O)CNC(=O)[C@H](Cc3ccc(C(=O)O)cc3)NC(=O)[C@H](Cc3c[nH]c4ccccc34)NC2=O)cc1
B4: SEQ ID NO: 94 (peptide)
peptide: cyclo([TyrEtNAc]W[Phe(4-COOH)]G[Pro(trans-4-NH2)][1Nal(3S-Me)]D[dNMeA]G[Bip(4'-COOH)][1Nal][Dap][Aib][h3Pal(5-CN)])
SMILES: CC(=O)NCCOc1ccc(C[C@@H]2NC(=O)[C@H](CCc3cncc(C#N)c3)NC(=O)C(C)(C)NC(=O)[C@H](CN)NC(=O)[C@H](Cc3cccc4ccccc34)NC(=O)[C@H](Cc3ccc(-c4ccc(C(=O)O)cc4)cc3)NC(=O)CNC(=O)[C@@H](C)N(C)C(=O)[C@H](CC(=O)O)NC(=O)[C@H]([C@@H](C)c3cccc4ccccc34)NC(=O)[C@@H]3C[C@@H](N)CN3C(=O)CNC(=O)[C@H](Cc3ccc(C(=O)O)cc3)NC(=O)[C@H](Cc3c[nH]c4ccccc34)NC2=O)cc1
B5: SEQ ID NO: 95 (peptide)
peptide: cyclo([TyrEtNAc]W[Phe(4-COOH)]G[Pro(trans-4-NH2)][1Nal(3S-Me)]D[dNMeA]G[Bip(4'-COOH)][1Nal]L[Aib]G)
SMILES: CC(=O)NCCOc1ccc(C[C@@H]2NC(=O)CNC(=O)C(C)(C)NC(=O)[C@H](CC(C)C)NC(=O)[C@H](Cc3cccc4ccccc34)NC(=O)[C@H](Cc3ccc(-c4ccc(C(=O)O)cc4)cc3)NC(=O)CNC(=O)[C@@H](C)N(C)C(=O)[C@H](CC(=O)O)NC(=O)[C@H]([C@@H](C)c3cccc4ccccc34)NC(=O)[C@@H]3C[C@@H](N)CN3C(=O)CNC(=O)[C@H](Cc3ccc(C(=O)O)cc3)NC(=O)[C@H](Cc3c[nH]c4ccccc34)NC2=O)cc1
B6: SEQ ID NO: 96 (peptide)
peptide: cyclo([TyrEtNAc]W[Phe(4-COOH)]G[Pro(trans-4-NH2)][1Nal(3S-Me)]D[dNMeA]G[Bip(4'-COOH)][1Nal]L[Aib][hTyr])
SMILES: CC(=O)NCCOc1ccc(C[C@@H]2NC(=O)[C@H](CCc3ccc(O)cc3)NC(=O)C(C)(C)NC(=O)[C@H](CC(C)C)NC(=O)[C@H](Cc3cccc4ccccc34)NC(=O)[C@H](Cc3ccc(-c4ccc(C(=O)O)cc4)cc3)NC(=O)CNC(=O)[C@@H](C)N(C)C(=O)[C@H](CC(=O)O)NC(=O)[C@H]([C@@H](C)c3cccc4ccccc34)NC(=O)[C@@H]3C[C@@H](N)CN3C(=O)CNC(=O)[C@H](Cc3ccc(C(=O)O)cc3)NC(=O)[C@H](Cc3c[nH]c4ccccc34)NC2=O)cc1
B7: SEQ ID NO: 97 (peptide)
peptide: cyclo([TyrEtNAc]W[Phe(4-COOH)]G[Pro(trans-4-NH2)][1Nal(3S-Me)]D[dNMeA]G[Bip(4'-COOH)][1Nal]L[dA]A)
SMILES: CC(=O)NCCOc1ccc(C[C@@H]2NC(=O)[C@H](C)NC(=O)[C@@H](C)NC(=O)[C@H](CC(C)C)NC(=O)[C@H](Cc3cccc4ccccc34)NC(=O)[C@H](Cc3ccc(-c4ccc(C(=O)O)cc4)cc3)NC(=O)CNC(=O)[C@@H](C)N(C)C(=O)[C@H](CC(=O)O)NC(=O)[C@H]([C@@H](C)c3cccc4ccccc34)NC(=O)[C@@H]3C[C@@H](N)CN3C(=O)CNC(=O)[C@H](Cc3ccc(C(=O)O)cc3)NC(=O)[C@H](Cc3c[nH]c4ccccc34)NC2=O)cc1
B8: SEQ ID NO: 98 (peptide)
peptide: cyclo([TyrEtNAc]W[Phe(4-COOH)]G[Pro(trans-4-NH2)][1Nal(3S-Me)]D[dNMeA]G[Bip(4'-COOH)][1Nal][Nva][dA]A)
SMILES: CCC[C@@H]1NC(=O)[C@H](Cc2cccc3ccccc23)NC(=O)[C@H](Cc2ccc(-c3ccc(C(=O)O)cc3)cc2)NC(=O)CNC(=O)[C@@H](C)N(C)C(=O)[C@H](CC(=O)O)NC(=O)[C@H]([C@@H](C)c2cccc3ccccc23)NC(=O)[C@@H]2C[C@@H](N)CN2C(=O)CNC(=O)[C@H](Cc2ccc(C(=O)O)cc2)NC(=O)[C@H](Cc2c[nH]c3ccccc23)NC(=O)[C@H](Cc2ccc(OCCNC(C)=O)cc2)NC(=O)[C@H](C)NC(=O)[C@@H](C)NC1=O
B9: SEQ ID NO: 99 (peptide)
peptide: cyclo([TyrEtNAc]W[Phe(4-COOH)]G[Pro(trans-4-NH2)][1Nal(3S-Me)]D[dNMeA]G[Bip(4'-COOH)][1Nal][Orn][Aib][hTyr])
SMILES: CC(=O)NCCOc1ccc(C[C@@H]2NC(=O)[C@H](CCc3ccc(O)cc3)NC(=O)C(C)(C)NC(=O)[C@H](CCCN)NC(=O)[C@H](Cc3cccc4ccccc34)NC(=O)[C@H](Cc3ccc(-c4ccc(C(=O)O)cc4)cc3)NC(=O)CNC(=O)[C@@H](C)N(C)C(=O)[C@H](CC(=O)O)NC(=O)[C@H]([C@@H](C)c3cccc4ccccc34)NC(=O)[C@@H]3C[C@@H](N)CN3C(=O)CNC(=O)[C@H](Cc3ccc(C(=O)O)cc3)NC(=O)[C@H](Cc3c[nH]c4ccccc34)NC2=O)cc1

biological target: Recombinant human IL-1β (BioLegend 579404) (human, UniProt P01584 117-269); test: cell-based or functional assay

Binder | MRC5 IC50 [pM]
B1 | 85

biological target: Recombinant human IL-1β (BioLegend 579404) (human, UniProt P01584 117-269); test: cell-based or functional assay; remark: another data set of the same source

Binder | MRC5 IC50 [pM]
B2 | 457
B3 | 120
B4 | 63.9
B5 | 422
B6 | 464
B7 | 294
B8 | 494
B9 | 256
